Measurements reported in the supplement of paper PMC7125110.
± gives the standard error. Variants at the floor of the assay were thinned out.

B1: glmS ribozyme (parent)
chain: AUAAAAGCGCCAGAACUACAGAAAUGUAGUUGACGAGGAGGAGGUUUAUCGAAUUUUCGGCGGAUGCCUCCAAA

Variants of: B1
Test: self-cleavage kobs at 10000 uM GlcN6P; higher = faster cleavage; RNA array
Settings: with glucosamine-6-phosphate
How it was run: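 In situ transcription by E. coli RNA polymerase produced barcoded ribozyme variants on sequenced MiSeq chips, and a hybridised Cy3 probe tracked them at 37 °C. Glucosamine-6-phosphate was flowed in at 40 μM to 10 mM in HEPES/KCl/Mg(OAc)2 buffer. kcat and KM were taken from weighted Michaelis–Menten fits of kobs values from exponential decay fits.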

Variant	self-cleavage kobs at 10000 uM GlcN6P
AUAAAAGCGCCAGAACUACAGAAAUGUAGUUGACGUGGAGGAGGUUUAACGAUUUUUCGGCGGAUGCCUCCAAA [A36U U49A A53U]	3.89e-05 ± 9.3e-06 s⁻¹
AUAAAAGCGCCAGAACUACAGAAAUGUAGUUGACGAGGAGGAGGUUUUUCGAAUUUUCGGCGGAUGGCUCCAAA [A48U C67G]	4.58e-05 ± 8.4e-06 s⁻¹
AUAAAAGCGCCAGUACUACAGAAAUGUAGUUGACAAGGAGGAGGUUUGUCGAACUUUCGGCGGAUGCCUGCAAA [A14U G35A A48G U54C C70G]	< 1e-05 s⁻¹
AUAAAAGCGCCAGAAUUACAGAAAUGUAUUUGACGAGGAGGAGGUUUAUCGAAUUUUCGGCGGAUGGCUCCAAA [C16U G29U C67G]	0.000292 ± 8.5e-05 s⁻¹
AUAAAAGCGCCAGAAUUACAGAAAUGUAGUUGACGAGGAGGAGGUUUAUCGAGUUUUCGGCGGAUGCCGCCAAA [C16U A53G U69G]	6.58e-05 ± 1.9e-05 s⁻¹
AUAAAAGCGCCAGAACUACAGAAAUGUAGUGGACGAGGAGGAGGUUUAUCGAAUGUUCGGCGGAUGCCGCCAAA [U31G U55G U69G]	6.94e-05 ± 1.1e-05 s⁻¹
AUAAAAGCGCCAGAACUACAGAAAUGUAGAUGACGAGGAGGAGAUUUAUCGAAUUUUCGGCGGAUGCGUCCAAA [U30A G44A C68G]	< 1e-05 s⁻¹
AUAAAAGCGCCAGCACUACAGAAAUGUAGUUGUCGUGGAGGAGGUUUAUCGAAUUUUCGUCCGAUGCCUCCAAA [A14C A33U A36U G60U G62C]	< 1e-05 s⁻¹
AUAAAAGCGCCAGAACUACAGAAAUGUAGUUGACGAGAAGGAGUUUUAUCGAGUUUUCGGCGGAUGCCUCCAAA [G38A G44U A53G]	< 1e-05 s⁻¹
AUAAAAGCGCCAGCACUACAGAAAUGUAGUUGACGAGGAAGAGGUUCAUCGAAUUUUCGGCGGAUGCCUCCAAA [A14C G40A U47C]	0.000375 ± 7e-05 s⁻¹
AUAAAAGCGCCAGAAUUACAGAAAUGUAGUUGGCGAGGUGGAGGUUUAUCGAAUUUUCGGCGGAUGCCUCCAAA [C16U A33G A39U]	< 1e-05 s⁻¹
AUAAAAGCGCCAGAACUACAGAAAUGUAGUAGCCGAGGAGGAGGUUUAUCGAAUUUUCGGCGGAUGCCUCCAAA [U31A A33C]	4.61e-05 ± 1.8e-05 s⁻¹
AUAAAAGCCCCAGAACUACAGAAAUGUAGUUGACGAGGAGGAGGUGUAUCGAUUGUUCGGCGGAUGCCUCCAAA [G9C U46G A53U U55G]	< 1e-05 s⁻¹
AUAAAAGCGCCUGAAGUACAGAAAUGUAAUUGACGAGGAGGAGGUUUAUCGAAUUUUCGGCGGAUGGCUCCAAA [A12U C16G G29A C67G]	0.000109 ± 2.3e-05 s⁻¹
AUAAAAGCGCCAGAACUACAGAAAUGUAGUUGACGAGGAGGACGUUUAUCGAAUUUUGGGCGGAUGCCUCAAAA [G43C C58G C71A]	< 1e-05 s⁻¹
AUAAAAGCGCCAGAAUUACAGAAAUGUAGUUGACGAGGGUGAGGUUUAUCGAAUUUUCGGCGGAUGCCUCCAAA [C16U A39G G40U]	0.0008 ± 0.00026 s⁻¹
AUAAAAUCGCCAGAACUACAGAAAUGUAGUUGACGAGGAGGAGGUUAAUCGAAUUUGCGGCGGAUGCCUCCAAA [G7U U47A U57G]	< 1e-05 s⁻¹

Variant	self-cleavage kobs at 10000 uM GlcN6P
AUAAAAGCGCCAGAACUACAGAAAUGUAGUUGACGAGGAGAAGGUUUAUCGAAUUUUCGGCGGAUACUUCCAAA [G41A G66A C68U]	3.05e-05 ± 1.3e-05 s⁻¹
AUAAAAGCGCCAUAACUACAGAAAUGUAGUUGACGAGGAGGAGCUUUAUCGAAUUCUCGGCGGAUGCCUCCAAA [G13U G44C U56C]	< 1e-05 s⁻¹
AUAAAAGCGCCAGAACUACAGAAAUGUAGUUGACGAGGAGGAGAUUUAUCGAAUUAUCGCCGGAUGCAUCCAAA [G44A U56A G60C C68A]	< 1e-05 s⁻¹
AUAAAAGCGCUAGAACUACAGAAAUGUAGUUGACGAGGGGGAGGUUUAUCGAAUUUUGGGCGGAUGCCUCCAAA [C11U A39G C58G]	7.12e-05 ± 1.7e-05 s⁻¹
AUAAAAGCGCCAAAACUACAGAAAUGUAGUUGACGAGGAGGAGUUUUAUCGAAUUUUCGGCUGAUGCCUCGAAA [G13A G44U G62U C71G]	< 1e-05 s⁻¹
AUAAAAGCGCUAGAACUACAGAAAUGUAGUUGACGAGGAGGCGGUUUAUCGAAUCUUCGGCGGAUGCCUUCAAA [C11U A42C U55C C70U]	< 1e-05 s⁻¹
AUAAAGGCGCCAGGACUACAGAAAUGUAGUUGACGAGGAGGAGGUUUAUCGACUUUUCGGCGGAUGCCUCCAAA [A6G A14G A53C]	7.6e-05 ± 2.3e-05 s⁻¹
AUAAACGCGCCAGAACUACAGAAAUGUAGUCGACGAGGAGGAGGUUUAUCGAAUUUUCGGCGUAUGCCUCGAAA [A6C U31C G63U C71G]	< 1e-05 s⁻¹
AUAAAAGCGACAGAACUACAGAAAUGUAUUUGACGAGGAGGAGGUUUAUCGAAUGUUCGGCGGAUGCGUCCAAA [C10A G29U U55G C68G]	3.81e-05 ± 1.8e-05 s⁻¹
AUAAAAGCGCCAGAACUACAGAAAUGUAGUUGACGAGGUGCAGGUUUAACGAAUUUUCGGUGGAUGCCUCCAAA [A39U G41C U49A C61U]	< 1e-05 s⁻¹
AUAAAAGCGCCCGAACUACAGAAAUGUAGUAGACGAGGAGGGGGUUUAUCGGAUUUUCGGCGGAUGCCUCCAAA [A12C U31A A42G A52G]	0.000429 ± 9.6e-05 s⁻¹
AUAAAAGCGCCAGAACUACAGAAAUGUAGUUGACGAAAAGGCGGUUUAUCGAAUUUUCUGCGGAUGCCUCCAAA [G37A G38A A42C G59U]	< 1e-05 s⁻¹
AUAAAUUCGCCAUAACUACAGAAAUGUAGUCGACGAGGAGGAGGUUUAUCGAAUUUUCGGCGGAUGCCUCCAAA [A6U G7U G13U U31C]	< 1e-05 s⁻¹
AUAAAAGCGCCACAACUACAGAAAUGUAGUCGACGAGGCGGAGGUUUAUCGAAUUUUCGGCGGAUGCCUCCAAA [G13C U31C A39C]	2.61e-05 ± 1.3e-05 s⁻¹
AUAAAAGCGCCACAACUACAGAAAUGUAGUUGGCGAGGAGUAGGUUUAUCGAAUUUUCGGCGGAUGCCUCCAAA [G13C A33G G41U]	< 1e-05 s⁻¹
AUAAAAGCGCCAGAAUUACAGAAAUGUAGUUGACGAGGAGGAGGUUUAUCGAAAUUUCGGCGGAUGCCUGCAAA [C16U U54A C70G]	0.000121 ± 2.5e-05 s⁻¹
AUAAAAGCGCCAGAACUACAGAAAUGUAGUUGAAGAGGAGGAGGUUGAUCGUAUUUUCGGCGGAUGCCUACAAA [C34A U47G A52U C70A]	0.00102 ± 0.00046 s⁻¹
